Patent publication US8962795B2, “Factor H binding peptides and uses thereof” (The Trustees of the University of Pennsylvania, priority 2010, dated 2015)
Values belong to the sequence of their own block, whether it stands above or below them. Positions of bridges follow the written chain, without caps; N, C: chain ends. No end group written: not given here.

How the values were obtained:
factor H [1] = target: T1, factor H (Homo sapiens, UniProt P08603); assay: Monoclonal phage ELISA, binding of phage clones to factor H (binding area localisation); settings: SCR5-18 attributed in absence of stable binding to N- or C-terminus of factor H
T1 construct: Human factor H was purified from normal human serum (NHS) by 5-12% PEG precipitation; from tissue; host or cells: normal human serum (NHS)
Experimental: (§1) Microtiter wells were coated overnight with either factor H or BSA at 5 μg/mL in PBS at 4° C., and saturated with 5% non-fat milk in PBST for 1 h. Completely separated individual phage plaques from the third round of screening were picked and amplified. Phage particles of each amplified individual phage plaque were added to both factor H- and BSA-coated wells in parallel and allowed to bind at RT for 1 h. After six washes with PBST, bound phages were detected with HRP-conjugated anti-M13 monoclonal antibody (GE Healthcare), using ABTS (Roche) for color development. Clones that bound to factor H but not to BSA were considered positive; single-stranded DNA from positive clones was prepared using an M13 kit (Qiagen, Valencia, Calif.) and sequenced by the DNA sequencing facility of the University of Pennsylvania.
(§2) To localize the binding sites on factor H of the positive clones, we further tested each clone by monoclonal phage ELISA for binding to factor H and its N- and C-terminal fragments, i.e. fH1-4 and fH19-20.

factor H [2] = target: T1, factor H; assay: SPR, factor H on surface-bound peptide; format: binding; settings: for SPR binding of factor H to immobilized peptide: biotinylated peptide on streptavidin chip, factor H 100 nM
Experimental: (§3) The binding of factor H with surface-bound 5C6 peptide was further characterized using surface plasmon resonance (SPR) on a ProteOn XPR36 instrument (Bio-Rad Inc., Hercules, Calif.) using PBST (10 mM sodium phosphate, 150 mM NaCl, 0.005% Tween 20) as running buffer. Streptavidin (50 μg/ml in 10 mM sodium acetate pH 5.0) was immobilized on a GLC sensor chip at 30° C. using amine coupling. The biotinylated 5C6 peptide and a biotinylated control peptide (linear compstatin; see above) were captured on separate streptavidin-coated channels to a density of ˜200 resonance units (RU). Purified factor H (Complement Technologies, Tyler, Tex.) or recombinant fragments fH1-4 and fH19-20 were injected at a concentration of 100 nM for 2 rain at a flow rate of 25 μl/min with a dissociation phase of 6 min. A single injection of 2 M NaCl for 30 s was used to regenerate the surface between injections. Data were processed using ProteOn Manager software by subtracting the signals from interspots and a blank streptavidin channel. In order to estimate the apparent binding affinity, a twofold dilution series of factor H (0.24-500 nM) was injected using the same protocol and fitted to various kinetic models using ProteOn Manager. In order to exclude sensor chip matrix-specific surface binding, the same experiment was repeated on Biacore 3000 instrument (GE Healthcare) using a SA chip under the same conditions as described above.

factor H [3] = target: T1, factor H; assay: Peptide-phage competition assay; format: binding; settings: serially diluted synthetic peptide; coated factor H
Experimental: (§4) Two approaches were used to evaluate the binding of synthetic peptides to factor H. First, we used peptide-phage competition assays, in which serially diluted synthetic peptide was added to its parent phage at the step of phage binding to coated factor H. The rest of the steps were performed as described above for monoclonal phage ELISA. Second, ELISA experiments were used to evaluate the binding of factor H to the immobilized peptide. Microtiter plates were coated with streptavidin (New England Biolabs) at 10 μg/ml in PBS at 4° C. overnight, and saturated with 2% BSA in PBS. After washing, either the biotinylated 5C6 peptide or a biotinylated control peptide (linear compstatin; IAVVQDWGHHRAT; SEQ ID NO:10) was added at 10 μg/ml and allowed to bind at RT for 30 min. The wells were washed again, and factor H serially diluted in PBS, starting with 2.5 μg/ml, was added. After 1 h of binding, the plates were washed, and bound factor H was detected with goat anti-human factor H polyclonal antibody (Quidel, San Diego, Calif.), followed by HRP-conjugated rabbit anti-goat IgG (Bio-Rad). […]

factor H [4] = target: T1, factor H; assay: Capture of factor H from plasma by immobilized peptide; format: binding; settings: vs control peptide
Experimental: as §4, with “After washing, either the biotinylated 5C6 peptide or a biotinylated control peptide (linear compstatin; IAVVQDWGHHRAT; SEQ ID NO:10) was added at 10 μg/ml and allowed to bind at RT for 30 min. The wells were washed again, and factor H serially diluted in PBS, starting with 2.5 μg/ml, was added.” left out
Polystyrene microtiter wells, which served as a model biomaterial, were coated overnight with streptavidin (10 μg/ml in PBS) at 4° C. […] Bound fragments of activated C3 were detected with an HRP-conjugated goat anti-human C3 polyclonal antibody (Cappel, Aurora, Ohio). In parallel, captured factor H from serum was detected with goat anti-human factor H polyclonal antibody followed by HRP-conjugated rabbit anti-goat IgG in duplicate wells as described above.

fH19-20 [5] = target: T2, fH19-20 (Homo sapiens, UniProt P08603); assay: SPR, fH19-20 fragment on surface-bound peptide; format: binding; settings: fragment 100 nM
T2 sequence (P08603 1107-1231): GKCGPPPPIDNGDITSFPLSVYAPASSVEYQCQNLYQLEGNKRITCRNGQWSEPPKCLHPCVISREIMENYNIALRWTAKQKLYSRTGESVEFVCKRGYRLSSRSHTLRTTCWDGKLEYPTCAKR
Experimental: as §3, with “In order to exclude sensor chip matrix-specific surface binding, the same experiment was repeated on Biacore 3000 instrument (GE Healthcare) using a SA chip under the same conditions as described above.” left out

factor H [6] = target: T1, factor H; assay: ELISA, binding of purified factor H to immobilized biotinylated peptide; settings: biotinylated peptide captured by coated streptavidin, polyclonal antibody detection
Experimental: as §4

[7] = system: AP complement activation (surface-bound activated C3); assay: Inhibition of biomaterial-induced AP activation by immobilized peptide (surface-bound activated C3); format: biochemical, human
Experimental: Polystyrene microtiter wells, which served as a model biomaterial, were coated overnight with streptavidin (10 μg/ml in PBS) at 4° C. After washing, the biotinylated 5C6 peptide and the control peptide (10 μg/ml in PBS) were added to the wells and incubated at RT for 30 min. The wells were again washed and serially diluted lepirudin plasma in VBS-Mg^2+/EGTA was added and incubated at RT for 1 h. In some experiments intended to monitor the inhibition of AP by immobilized peptide on a HSA monolayer, the washed wells were saturated with 2% HSA in PBS for 1 h, prior to the addition of plasma. In both series of experiments, the wells were then washed, and the binding sites were saturated with 2% BSA in PBS for 1 h. Bound fragments of activated C3 were detected with an HRP-conjugated goat anti-human C3 polyclonal antibody (Cappel, Aurora, Ohio). In parallel, captured factor H from serum was detected with goat anti-human factor H polyclonal antibody followed by HRP-conjugated rabbit anti-goat IgG in duplicate wells as described above.

[8] = target: T3, factor H cofactor activity (Homo sapiens, UniProt P08603); assay: Factor H cofactor activity assay (factor I-mediated cleavage of C3b); format: biochemical; settings: for effect on cofactor assay: peptide expressed as fusion protein with phage PIII domain, not shown
T3 construct: Human factor H was purified from normal human serum (NHS) by 5-12% PEG precipitation; from tissue; host or cells: normal human serum (factor H, C3); factor I from unnamed 'other sources'
Experimental: (§5) To determine whether the binding of the 5C6 peptide interferes with the regulatory activity and cell-surface binding capacity of factor H, we performed factor H cofactor activity assays using purified C3b, factor H and factor I, as well as hemolytic assays, both which were performed in the presence of different concentrations of the 5C6 peptide. The hemolysis assay experiments were repeated at least three times using lepirudin plasma from different blood donors.
The factor H cofactor activity assay was performed according to known methods. In brief, 1.14 μM C3b, 16 nM factor I, and 72 nM factor H were incubated with various amounts of the 5C6 peptide (0.4, 4, and 40 μM, respectively) in PBS at 37° C. for 1 hr in a final volume of 20 μl. The reaction was terminated by adding SDS-PAGE loading buffer, and the samples were analyzed by 8% SDS-PAGE under reducing conditions, followed by Coomassie blue staining.

factor H [9] = target: T1, factor H; assay: Factor H concentration in plasma after incubation on peptide-coated surface; settings: data not shown
Sheep erythrocytes = assay: Hemolytic assay (factor H cell-surface binding); format: cell-based; settings: for effect on hemolytic assay: peptide expressed as fusion protein with phage PIII domain, not shown
Experimental: as §5
Hemolytic assays were performed to determine whether the peptide altered factor H cell-surface binding activity. Sheep erythrocytes (Cocalico Biological Inc., Reamstown, Pa.) were washed with VBS containing 5 mM Mg^2+/EGTA (VBS-Mg^2+/EGTA) until the supernatant was clear. The assay was titrated by lysing erythrocytes in serial dilution with water in a final volume of 300 μl. The OD405 of the supernatants was measured, and the amount of the erythrocytes yielding an OD405 of ˜1 was used in the assay. Serial dilutions of the 5C6 peptide or monoclonal antibody MH10 (which binds fH19-20 and inhibits factor H cell surface binding) with the determined amount of sheep erythrocytes and lepirudin plasma diluted 1:10 in VBS-Mg^2+/EGTA in a final volume of 300 μL were incubated at 37° C. for 1 h in a shaking water bath. After centrifugation the OD405 of the supernatants was measured, and the OD value was used to represent the cell lysis.

fH1-4 [10] = target: T4, fH1-4 (Homo sapiens, UniProt P08603); assay: SPR, fH1-4 fragment on surface-bound peptide; format: binding; settings: fragment 100 nM
T4 construct: made in house
Experimental: as §3, with “In order to exclude sensor chip matrix-specific surface binding, the same experiment was repeated on Biacore 3000 instrument (GE Healthcare) using a SA chip under the same conditions as described above.” left out

fH19-20 [11] = target: T2, fH19-20; assay: Monoclonal phage ELISA, binding of phage clones to fH19-20
Experimental: as §1, §2

fH1-4 [12] = target: T4, fH1-4; assay: Monoclonal phage ELISA, binding of phage clones to fH1-4
Experimental: as §1, §2

T1 sequence (P08603 19-1231): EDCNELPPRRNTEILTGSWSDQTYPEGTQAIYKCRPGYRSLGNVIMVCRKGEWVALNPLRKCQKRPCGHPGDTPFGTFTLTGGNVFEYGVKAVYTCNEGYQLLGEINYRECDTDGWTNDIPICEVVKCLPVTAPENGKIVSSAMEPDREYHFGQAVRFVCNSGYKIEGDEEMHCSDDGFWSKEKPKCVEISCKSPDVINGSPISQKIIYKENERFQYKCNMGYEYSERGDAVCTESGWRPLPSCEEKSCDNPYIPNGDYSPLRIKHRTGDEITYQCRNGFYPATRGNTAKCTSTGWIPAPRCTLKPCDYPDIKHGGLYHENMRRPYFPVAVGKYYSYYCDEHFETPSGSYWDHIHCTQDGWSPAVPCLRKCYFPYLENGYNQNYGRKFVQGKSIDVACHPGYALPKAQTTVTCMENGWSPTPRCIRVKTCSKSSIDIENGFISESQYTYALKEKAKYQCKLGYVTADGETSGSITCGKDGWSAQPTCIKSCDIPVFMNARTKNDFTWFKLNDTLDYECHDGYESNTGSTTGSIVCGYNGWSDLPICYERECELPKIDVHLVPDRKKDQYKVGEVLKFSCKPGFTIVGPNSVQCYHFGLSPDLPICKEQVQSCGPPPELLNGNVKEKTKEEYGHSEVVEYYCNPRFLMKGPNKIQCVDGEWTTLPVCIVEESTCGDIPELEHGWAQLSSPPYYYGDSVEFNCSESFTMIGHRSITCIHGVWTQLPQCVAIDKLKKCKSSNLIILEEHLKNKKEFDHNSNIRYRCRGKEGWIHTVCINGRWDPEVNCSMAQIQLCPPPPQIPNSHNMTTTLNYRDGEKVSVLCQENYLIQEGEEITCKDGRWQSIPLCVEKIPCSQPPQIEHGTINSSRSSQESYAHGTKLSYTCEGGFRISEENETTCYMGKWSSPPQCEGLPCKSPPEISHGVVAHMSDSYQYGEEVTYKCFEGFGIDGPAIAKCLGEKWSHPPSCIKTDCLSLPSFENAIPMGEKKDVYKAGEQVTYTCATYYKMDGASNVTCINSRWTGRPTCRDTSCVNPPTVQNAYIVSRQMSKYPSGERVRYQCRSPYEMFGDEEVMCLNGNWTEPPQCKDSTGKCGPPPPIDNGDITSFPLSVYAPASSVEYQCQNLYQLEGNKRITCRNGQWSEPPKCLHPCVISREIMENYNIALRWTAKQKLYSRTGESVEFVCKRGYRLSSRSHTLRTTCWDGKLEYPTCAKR
T3 sequence (P08603 19-1231): as above
T4 sequence (P08603 19-264): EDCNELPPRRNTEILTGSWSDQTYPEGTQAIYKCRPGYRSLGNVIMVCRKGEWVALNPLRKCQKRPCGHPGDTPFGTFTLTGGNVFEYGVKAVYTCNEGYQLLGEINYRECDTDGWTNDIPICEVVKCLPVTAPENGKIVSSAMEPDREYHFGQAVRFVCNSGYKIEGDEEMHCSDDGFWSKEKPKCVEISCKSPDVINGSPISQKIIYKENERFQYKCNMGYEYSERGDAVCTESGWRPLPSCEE

Sequence: ASSFKCDYSHWCLH [5E10]
Binding area on factor H (factor H [1]): SCR5-18

Sequence: ASSGMCFTKKTVLC [4A1]
binding of phage clone to fH19-20 (fH19-20 [11]): bind to the C-terminal two SCR of factor H
Binding area on factor H (factor H [1]): SCR19-20
effect on hemolytic assay (Sheep erythrocytes): affected

Sequence: IAVVQDWGHHRAT [Control Peptide (LC), reference compound]
SPR binding of factor H to immobilized peptide (factor H [2]): no significant binding
binding signal for factor H on immobilized peptide (ELISA) (factor H [6]): not

Sequence: ASSYDVGYSHDCRF [5-2C6]
effect on cofactor assay [8]: affected
binding of phage clone to fH1-4 (fH1-4 [12]): bound to the N-terminal regulatory region of factor H
Binding area on factor H (factor H [1]): SCR1-4

Second part, led by results:

Binding area on factor H (factor H [1]): SCR5-18
Sequence: ASPSWCSYSHWCRH [5D1]

SPR binding of factor H to immobilized peptide (factor H [2]): high binding activity and stability
inhibition of binding of the other class 3 phages to factor H by 5C6 peptide (factor H [3]): strongly inhibited
factor H capture from plasma by immobilized peptide (factor H [4]; polystyrene with HSA monolayer): pronounced factor H capture
factor H capture from plasma by immobilized peptide (factor H [4]; polystyrene without HSA pre-saturation): captured more factor H
binding signal for factor H on immobilized peptide (ELISA) (factor H [6]): strong binding signal
effect on cofactor assay [8]: no such effect
effect on factor H cofactor activity ([8]; synthetic peptide up to 40 μM, 550-fold excess over factor H (72 nM)): did not inhibit
Binding area on factor H (factor H [1]): SCR5-18
factor H concentration in plasma incubated on peptide-coated surface (factor H [9]): no significant decline
SPR binding of fH1-4 fragment to immobilized peptide (fH1-4 [10]): no binding
Sequence: ASSSRCTYDHWCSH (disulfide 6-12 (inferred); not fully specified; also: biotinylated) [5C6, used biotinylated when immobilized]
SPR apparent binding affinity for factor H (factor H [2]; dilution series of factor H 0.24-500 nM, deviation from single-site model, apparent): concentration-dependent binding with high affinity
inhibition of parent phage binding to factor H by synthetic peptide (factor H [3]): inhibited its parent phages from binding to factor H in a dose-dependent manner
SPR binding of fH19-20 fragment to immobilized peptide (fH19-20 [5]): a significant SPR response could also be detected for the fH19-20 fragment, this interaction was not stable
complement activation on peptide-immobilized surface ([7]; polystyrene with HSA monolayer, lepirudin plasma in VBS-Mg2+/EGTA, vs control peptide): substantially inhibited
complement activation on peptide-immobilized surface ([7]; polystyrene without HSA pre-saturation, plasma): strongly inhibited
lysis of sheep erythrocytes (Sheep erythrocytes; 10-fold diluted lepirudin plasma, peptide up to 40 μM): No lysis
effect on hemolytic assay (Sheep erythrocytes): no such effect

Binding area on factor H (factor H [1]): SCR5-18
Sequence: ASSNVCSYSYWCAH [5G11]

Binding area on factor H (factor H [1]): SCR5-18
Sequence: ASSCMYSYWCTH [5-2B2]
